Data as given in patent US8133978.

Assays:
[1] = molecular target: Human interleukin-18 (recombinant human IL-18) (human) (UniProt Q14116); test: ELISA, IL-18 bp-Fc coated at 0.5 ug/ml, human IL-18 added at 100 ng/ml, antibody titrated, detection anti-rat IgG HRP, Abs 490 nm
[2] = molecular target: Human interleukin-18 (recombinant human IL-18) (human) (UniProt Q14116); test: cell-based or functional assay

Chain of Human interleukin-18 (recombinant human IL-18) (human) (Q14116 37-193 limits assumed): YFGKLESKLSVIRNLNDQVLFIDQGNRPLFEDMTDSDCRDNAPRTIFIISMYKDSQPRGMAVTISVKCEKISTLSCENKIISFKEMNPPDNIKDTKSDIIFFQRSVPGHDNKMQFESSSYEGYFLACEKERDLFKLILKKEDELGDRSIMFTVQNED

B1: Parental rat antibody 2C10 (antibody, from another filing, V domains shown)
VH: EVQLQQSGAELVRPGTSVKLSCKVSGEISTGYYFHFVRRRPGQGLEWIGRIDPEDDSTKYAERFKDRATLTAQTSSNTAYLNLSSLTSEDTATYFCTTWRIYRDSSGRPFYVMDAWGQGASVTVSS
VL: DIQMTQSPASLSASLGETVSIECLASEDIYTYLTWYQQKPGKSPQLLIYGANKLQDGVPSRFSGSGSGTQYSLKISGIQPEDEGDYFCLQGSKFPLTFGSGTKLEIKR
- EC50 (read off the curve) [1]: 0.04 µg/mL
- IC50, LPS-stimulated IFNγ release, human PBMC, Donor 1 10% serum [2]: 0.023
- IC50, LPS-stimulated IFNγ release, human PBMC, Donor 1 25% serum [2]: 0.069
- IC50, LPS-stimulated IFNγ release, human PBMC, Donor 3 10% serum [2]: 0.033
- IC50, LPS-stimulated IFNγ release, human PBMC, Donor 3 25% serum [2]: 0.086
- complete inhibition of IL-18 mediated IFNγ release, LPS-stimulated human PBMC, 10% or 25% human serum [2]: > 1 µg/mL
- inhibition of LPS-induced IFNγ production in human PBMC [2]: 1 µg/mL
